Measured values taken from IntAct's records for PubMed 11872753.

B1: Acid-sensing ion channel 3 (Rattus norvegicus (Rat)), O35240 (parent)
chain: MKPRSGLEEAQRRQASDIRVFASSCTMHGLGHIFGPGGLTLRRGLWATAVLLSLAAFLYQVAERVRYYGEFHHKTTLDERESHQLTFPAVTLCNINPLRRSRLTPNDLHWAGTALLGLDPAEHAAYLRALGQPPAPPGFMPSPTFDMAQLYARAGHSLEDMLLDCRYRGQPCGPENFTVIFTRMGQCYTFNSGAHGAELLTTPKGGAGNGLEIMLDVQQEEYLPIWKDMEETPFEVGIRVQIHSQDEPPAIDQLGFGAAPGHQTFVSCQQQQLSFLPPPWGDCNTASLDPDDFDPEPSDPLGSPRPRPSPPYSLIGCRLACESRYVARKCGCRMMHMPGNSPVCSPQQYKDCASPALDAMLRKDTCVCPNPCATTRYAKELSMVRIPSRASARYLARKYNRSESYITENVLVLDIFFEALNYEAVEQKAAYEVSELLGDIGGQMGLFIGASLLTILEILDYLCEVFQDRVLGYFWNRRSAQKRSGNTLLQEELNGHRTHVPHLSLGPRPPTTPCAVTKTLSASHRTCYLVTRL
partner: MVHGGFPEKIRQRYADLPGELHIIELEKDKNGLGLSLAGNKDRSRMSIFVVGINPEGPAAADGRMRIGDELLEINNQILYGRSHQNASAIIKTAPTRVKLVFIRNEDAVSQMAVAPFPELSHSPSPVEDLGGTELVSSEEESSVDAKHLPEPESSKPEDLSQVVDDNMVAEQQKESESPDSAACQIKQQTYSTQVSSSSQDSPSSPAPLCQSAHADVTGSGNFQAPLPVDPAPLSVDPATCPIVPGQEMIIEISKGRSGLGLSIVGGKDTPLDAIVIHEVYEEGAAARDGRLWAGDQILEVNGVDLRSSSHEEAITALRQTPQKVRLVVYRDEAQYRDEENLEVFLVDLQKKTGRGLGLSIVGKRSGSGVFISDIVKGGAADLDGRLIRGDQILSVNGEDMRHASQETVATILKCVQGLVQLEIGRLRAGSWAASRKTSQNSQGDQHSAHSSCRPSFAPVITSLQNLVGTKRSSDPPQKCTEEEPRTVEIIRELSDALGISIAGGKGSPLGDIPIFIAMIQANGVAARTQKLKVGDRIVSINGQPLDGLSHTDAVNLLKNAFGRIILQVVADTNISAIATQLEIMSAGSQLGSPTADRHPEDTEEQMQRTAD

Variants of: B1
Details: with Patj

| Variant | effect of a mutation on the interaction |
| --- | --- |
| MKPRSGLEEAQRRQASDIRVFASSCTMHGLGHIFGPGGLTLRRGLWATAVLLSLAAFLYQVAERVRYYGEFHHKTTLDERESHQLTFPAVTLCNINPLRRSRLTPNDLHWAGTALLGLDPAEHAAYLRALGQPPAPPGFMPSPTFDMAQLYARAGHSLEDMLLDCRYRGQPCGPENFTVIFTRMGQCYTFNSGAHGAELLTTPKGGAGNGLEIMLDVQQEEYLPIWKDMEETPFEVGIRVQIHSQDEPPAIDQLGFGAAPGHQTFVSCQQQQLSFLPPPWGDCNTASLDPDDFDPEPSDPLGSPRPRPSPPYSLIGCRLACESRYVARKCGCRMMHMPGNSPVCSPQQYKDCASPALDAMLRKDTCVCPNPCATTRYAKELSMVRIPSRASARYLARKYNRSESYITENVLVLDIFFEALNYEAVEQKAAYEVSELLGDIGGQMGLFIGASLLTILEILDYLCEVFQDRVLGYFWNRRSAQKRSGNTLLQEELNGHRTHVPHLSLGPRPPTTPCAVTKTLSASHRTCYLVTRF [L533F] | disrupting interaction |
